From PMC4974525

Target: African cassava mosaic virus (ACMV) capsid protein expressed in fission yeast (African cassava mosaic virus (ACMV-[Nigeria-Ogo]))
Test: SDS-PAGE with Western blot

Substance: African cassava mosaic virus (ACMV) capsid protein expressed in fission yeast (natural protein)
- stoichiometry N: 2
